From US20020177126A1
pKd: −log10 of the molar value.

Legend:
[1] = target: RSV F glycoprotein (NUF4) (respiratory syncytial virus (RSV)) (UniProt P03420); test: BIAcore, Mab vs NUF4, 1:1
[2] = target: RSV F glycoprotein (NUF4) (respiratory syncytial virus (RSV)) (UniProt P03420); test: BIAcore, Mab vs NUF4, 2:1
[3] = target: RSV F glycoprotein (NUF4) (respiratory syncytial virus (RSV)) (UniProt P03420); test: ITC, NUF4 titrated into antibody
[4] = target: RSV F glycoprotein (NUF4) (respiratory syncytial virus (RSV)) (UniProt P03420); test: ITC, NUF4 titrated into antibody, 35 °C

Sequence of SYNAGIS® (antibody) (VH): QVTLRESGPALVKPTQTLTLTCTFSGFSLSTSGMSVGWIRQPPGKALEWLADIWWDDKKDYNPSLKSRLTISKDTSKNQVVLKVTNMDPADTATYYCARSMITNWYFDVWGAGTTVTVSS
Sequence of SYNAGIS® (antibody) (VL): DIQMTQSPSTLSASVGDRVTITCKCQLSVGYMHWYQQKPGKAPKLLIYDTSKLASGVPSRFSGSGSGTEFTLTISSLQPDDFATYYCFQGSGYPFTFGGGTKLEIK
Sequence of A4B4 (monoclonal antibody) (VH): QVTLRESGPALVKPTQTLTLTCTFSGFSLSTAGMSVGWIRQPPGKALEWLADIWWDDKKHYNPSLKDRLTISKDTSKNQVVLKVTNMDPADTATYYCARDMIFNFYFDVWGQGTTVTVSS
Sequence of A4B4 (monoclonal antibody) (VL): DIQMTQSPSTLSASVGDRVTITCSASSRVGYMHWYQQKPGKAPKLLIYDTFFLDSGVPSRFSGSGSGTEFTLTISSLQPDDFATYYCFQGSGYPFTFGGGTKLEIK
Sequence of RSV F glycoprotein (NUF4) (respiratory syncytial virus (RSV)) (P03420 26-524): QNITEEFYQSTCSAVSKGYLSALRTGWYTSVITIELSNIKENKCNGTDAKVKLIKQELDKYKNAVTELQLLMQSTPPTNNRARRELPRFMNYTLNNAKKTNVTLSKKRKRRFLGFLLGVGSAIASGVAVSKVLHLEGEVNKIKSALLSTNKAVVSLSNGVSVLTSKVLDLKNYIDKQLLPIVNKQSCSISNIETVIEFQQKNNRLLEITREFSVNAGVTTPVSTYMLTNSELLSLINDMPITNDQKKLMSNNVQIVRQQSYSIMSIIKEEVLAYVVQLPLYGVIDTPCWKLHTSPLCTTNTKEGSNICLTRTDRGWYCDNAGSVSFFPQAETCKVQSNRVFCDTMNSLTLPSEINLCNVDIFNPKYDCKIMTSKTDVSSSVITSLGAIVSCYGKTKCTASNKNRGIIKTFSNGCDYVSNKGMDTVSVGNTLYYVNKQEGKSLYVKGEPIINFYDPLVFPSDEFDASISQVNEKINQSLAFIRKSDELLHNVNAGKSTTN

| Substance | pKd [1] | koff [1] [s⁻¹] | kon [1] [M⁻¹ s⁻¹] | number in parentheses after KD (fold vs SYNAGIS) [1] [fold] | pKd [2] | koff [2] [s⁻¹] | kon [2] [M⁻¹ s⁻¹] | number in parentheses after KD (fold vs SYNAGIS) [2] [fold] | Hb in kJ mol^-1 (binding enthalpy) [3] [kJ/mol] | Ka [4] [M⁻¹] | pKd [4] |
| --- | --- | --- | --- | --- | --- | --- | --- | --- | --- | --- | --- |
| SYNAGIS® (antibody) | 8.06 | 0.00265 | 304000 | 1 | 6.51 | 0.0242 | 78000 | 1 | 71 | 1.23e+06 | – |
| A4B4 (monoclonal antibody) | 9.24 | 0.000282 | 496000 | 15 | 8.70 | 0.000401 | 203000 | 156 | 92.8 | 2.69e+08 | 8.43 |
